Columns and labels:
Rbfox RRM (109-208) [1] = target: T1, Rbfox RRM (109-208) (Homo sapiens, UniProt Q9NWB1 109-208); assay: EMSA
T1 sequence: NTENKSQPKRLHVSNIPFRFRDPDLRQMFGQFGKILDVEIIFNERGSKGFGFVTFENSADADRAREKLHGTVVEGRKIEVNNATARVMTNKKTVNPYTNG

Rbfox RRM (109-208) [2] = target: T1, Rbfox RRM (109-208); assay: NMR
Rbfox1 RRM (109-225) = target: T2, Rbfox1 RRM (109-225) (Homo sapiens, UniProt Q9NWB1 109-225); assay: NMR
T2 sequence: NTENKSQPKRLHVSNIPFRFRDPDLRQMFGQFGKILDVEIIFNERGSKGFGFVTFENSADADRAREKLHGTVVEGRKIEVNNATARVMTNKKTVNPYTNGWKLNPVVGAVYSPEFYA

B1: pre-miR-20b full-length (structured_RNA)
RNA: AGUACCAAAGUGCUCAUAGUGCAGGUAGUUUUGGCAUGACUCUACUGUAGUAUGGGCACUUCCAGUACU
- Kd (Rbfox RRM (109-208) [1]): ~50 nM

Binder: GCUCAUAGUGCAGGUAGUUUUGGCAUGACUCUACUGUAGUAUGGGC (structured_RNA) [pre-miR-20b 46-nt (G7-C52)]
- binding result (Rbfox RRM (109-208) [2]): binds

Binder: GCUCAUAGUGCAGGUAGUUUUGGCAUGACUCUACUGUAGUAUGGGC (structured_RNA, 4-thiouridine at U43 carrying spin label) [pre-miR-20b 46-nt, 4-thio-U43 spin-labeled]
- binding result (Rbfox1 RRM (109-225)): binds
